Series [1] addresses trimethylamine-N-oxide demethylase (Tdm) from Methylocella silvestris BL2 (Methylocella silvestris BL2). The experiment in a line: SEC; analytical SEC, HiLoad 16/600 Superdex 200 pg, 50 mM TRIS pH 7.9, 150 mM NaCl, 0.5 mL/min; column calibrated with globular proteins; 0.5 mL of concentrated IMAC fractions injected. Background: SEC sorts molecules by how far they enter the pores of the column.

Substrate in series [2]: C[N+](C)(C)[O-]
The experiment in a line: isothermal titration calorimetry, multiple injection, Michaelis-Menten fit. The note with it: 50 mM KPi pH 7.0, 25 °C, 100 nM Tdm, multiple injections of 600 μM TMAO. It counts as biochemical, Methylocella silvestris. From the text:
isothermal titration calorimetry, multiple injection, Michaelis-Menten fit on Tdm (trimethylamine-N-oxide demethylase)
Background: ITC needs no label: the signal is the heat of the interaction.

The values below come from publication PMC12560246, “Calorimetric characterization of the stability and activity of trimethylamine‐N‐oxide (TMAO) demethylase from Methylocella silvestris BL2” (Protein Science : A Publication of the Protein Society, 2025).

Where “and” joins values, the source holds several entries; their conditions need not be identical. Equal entries are not always repeated.

With “trimethylamine-N-oxide demethylase (Tdm) from Methylocella silvestris BL2 (enzyme)”, the stoichiometry N in series [1] is 8 and 5.

B1: Tdm (trimethylamine-N-oxide demethylase) (Methylocella silvestris BL2) (protein)
chain: MNVNAAAPKGSFDLDAPRRVQTLSAAGGGGVQFDLSAGDEAIITNLEGGQAGELLTASGEPLRLTPGSAPTDEAGVRAVAGDLAAAFLAARQGTERFLATPLFHAAAEPGETFRFKAEADMRCLLLAPGEPMAPDAQNPPTELRLDIFSSRPTGGAAPPSLAPVKLDLRVDAATARAYRVSAGDYIQIIDVDGRQCSDLVAFDARALAEGRELGVDPTVTRTLMGSATPGPGLHAKYFDQDMNPLFEIVRDTVGRHDTFMLACNAKYYDDMGYPGHANCTDNFNAALAPFGVAPRRGWPAINFFYNTFVAEDNTIGLDEPWSRPGDYVLLRALTDLVCASSSCADDIDPANGWMPTDIHVRVYDAAASFSKGIAHRMTADAAPRLTRESGFHSRTSALTRSFADYRGFWTPQCYASEGPIAEYWACRERAVLIDLSALRKFEITGPDAEILLQSAVTRNIRKLAVGQIVYTAICHEHGGMLDDGTVFRLGDNNFRLVCGEDYCGVFLRELAARQGLRAFVRSSTDQLHNVALQGPKSRDILREILVTPPHRASADELKWFRFTVGKIAGLPVLVSRTGYTGELGYEIWLHPGSAVAVWDALMAAGKPYGIAPFGFAALDMVRIEAGLIFAHHEFCDETDPFEAGIGFAVPAEKADPYVGSEALARRRASPIRRLAGLDVAGNEAVAHGDPVFAGRAQVGVVTSAMRSPVLGRTIALARLDAACASIGTDLEIGKLDGRQKRIAATVARFPHYDPEKARVRA
notes: GenBank version '.14' [sic]
In the case of B1, in series [2], the Michaelis constant (Km) came out at 866 ± 72 µM, the Vmax is 18.5 µmol/min and the catalytic constant (kcat) stood at 15.48 ± 0.04 s⁻¹.

By stoichiometry N is commonly meant a count of units in the complex or per binding partner. Usually Km stands for the substrate concentration at which the rate is half of its maximum. A word on the Vmax: it is the top rate of the reaction or transport when substrate is in excess. In general, kcat refers to the number of substrate molecules converted per active site and unit of time at saturation.
